Read-outs that look alike come from different tables or passages of the source. Peptide text beside a SMILES is read from it.
Key:
[1] = target: T1, CD59 (Homo sapiens, UniProt P13987); assay: SPR (Biacore S200) binding to immobilised biotinylated CD59
T1 construct: Recombinant soluble human CD59 with an additional C-terminal cysteine residue
T1 sequence (P13987 26-102 limits assumed): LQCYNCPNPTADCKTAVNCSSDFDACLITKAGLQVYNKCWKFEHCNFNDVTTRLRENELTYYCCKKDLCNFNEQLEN
Excerpt: To identify which of these peptides bound CD59 most tightly, we used a Biacore S200 surface plasmon resonance (SPR) platform to investigate CD59 affinity (Figure 2b), using a known protein binding partner of CD59 (rILYd4) as a benchmark. Four 13‐mer macrocyclic peptides and one 14‐mer macrocyclic peptide were identified with a dissociation constant (K D) lower than that of rILYd4. Considering their fourfold lower molecular weight, these peptides bind with up to 19‐fold greater efficiency compared to rILYd4 (Figure 2b).
Equipment: SPR analysis was performed on a Cytiva Biacore S200. All buffers were prepared using ultra-pure water from a Millipore Elix Q-Gard purification system. Solutions and buffers were filtered with a 0.22 μm filter and degassed prior to use. The assays were performed on Series S streptavidin (SA) sensor chip (Cytiva). PBS-P+ buffer 10X (0.2 M phosphate buffer with 27 mM KCl, 1.37 M NaCl and 0.5% Surfactant P20 (Tween 20)) was used for the preparation of the assay running buffer (PBS-P+ 1X).
Immobilisation of CD59-biotin: Biotinylated CD59 was immobilised on the surface of a SA chip by non-covalent capture (biotin streptavidin interaction) as per the manufacturer’s instructions. The system was initially primed with running buffer and normalised using BIAnormalizing solution (70% (w/w) glycerol) (Cytiva). Before immobilising the protein, the surface was conditioned with three consecutive one-minute injections of 1 M NaCl in 50 mM NaOH. Biotinylated CD59 (0.5 µg/mL in running buffer) was flowed over the protein (active) channel for different contact times to achieve different immobilisation levels (600–1200 RU). After each protein injection, the needle and injection loop were washed using 50% isopropanol in 1 M NaCl and 50 mM NaOH. A reference channel was prepared by similar treatment; however, running buffer alone rather than CD59-biotin in running buffer was flowed over the chip the same way.
Interaction analysis: Multicycle kinetic and affinity approach was used for the analysis of peptides interactions with CD59. Two-fold serial dilutions of each peptide were prepared in running buffer and were flowed over both the ligand and reference channel using a flow rate (30 μL/min) at 25 °C. A zero concentration was added to each analyte series and three cycles of buffer were run between analytes to restore the baseline. The obtained sensorgrams were analysed using the embedded Biacore S200 Evaluation software. The data were normalised by subtracting RU values of the reference channel and zero concentration of the analyte series. Kinetic rate constants (kon and koff) were determined by fitting the normalised data using the built-in Kinetic analysis model (non-linear regression with a 1:1 Langmuir binding model), KD values were then calculated from the two rate constants ([…]). The KD values were determined again by fitting the normalised data using the built-in Affinity analysis model (1:1 Langmuir binding model).

[2] = target: T2, biotinylated CD59 (Homo sapiens, UniProt P13987); assay: mRNA-display cyclic peptide screen against CD59-biotin, NGS abundance after 6th selection round; conditions: for Percentage Seq I: counts normalised by total counts of sample Seq I; for Percentage Seq I / Percentage Seq II: percentage of the pool; for Percentage Seq I / Percentage Seq II / Percentage Average / Percentage of the pool, averaged across the two sequencing samples / Percentage of the pool, Seq I / Percentage of the pool, Seq II: sheet R6; for Percentage Seq II: counts normalised by total counts of sample Seq II; for Percentage Average: percentage of the pool averaged across the two sequencing samples; for Counts Seq I / Counts Seq II: raw NGS counts of peptide sequence; for Counts Seq I: sequencing sample Seq I; for Counts Seq I / Counts Seq II / Counts (raw counts for peptide sequence), Seq I / Counts (raw counts for peptide sequence), Seq II: sheet R6 (6th selection round); for Counts Seq II: sequencing sample Seq II; for Counts (raw counts for peptide sequence), Seq I: NGS sample Seq I; for Counts (raw counts for peptide sequence), Seq II: NGS sample Seq II; for Percentage of the pool, averaged across the two sequencing samples: average of Seq I and Seq II; for Percentage of the pool, Seq I: counts normalised by total counts of NGS sample Seq I; for Percentage of the pool, Seq II: counts normalised by total counts of NGS sample Seq II
T2 construct: Recombinant soluble human CD59 with an additional C-terminal cysteine residue
T2 sequence (P13987 26-102 limits assumed): T1 sequence (P13987 26-102 limits assumed)
In short: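 Peptide–mRNA fusions were made by in vitro translation with a customised PURE express kit. The kit lacked release factor 1 and methionine and was supplemented with […] initiator tRNA carrying N-chloroacetyl-d-tyrosine. Thioether macrocycles were formed, then enriched and amplified over iterative rounds on CD59-biotin immobilised on streptavidin beads. NGS read counts per sequence were recorded after the 6th selection round.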

[3] = Ala scan of CP-06, SPR, n = 1, read-out: KD

CC(C)[C@@H]1NC(=O)[C@H](CO)NC(=O)[C@H](CO)NC(=O)[C@H](CCCNC(=N)N)NC(=O)[C@H](CC(N)=O)NC(=O)CNC(=O)[C@H](Cc2c[nH]c3ccccc23)NC(=O)[C@H]([C@@H](C)O)NC(=O)[C@H](Cc2c[nH]c3ccccc23)NC(=O)[C@H](CO)NC(=O)[C@@H](Cc2ccc(O)cc2)NC(=O)CSC[C@@H](C(=O)NCC(=O)N[C@@H](CO)C(=O)NCC(=O)N[C@@H](CO)C(=O)NCC(=O)N[C@@H](CO)C(=O)N[C@@H](CCCCN)C(N)=O)NC(=O)CNC(=O)[C@H](CCCNC(=N)N)NC1=O [CP-06-GSGSGSK] (HELM PEPTIDE1{[O=C(C[*:3])[*:2]].[dY].S.W.T.W.G.N.R.S.S.V.R.G.C.G.S.G.S.G.S.K.[am]}$PEPTIDE1,PEPTIDE1,1:R3-15:R3$$$V2.0)
Kd ([1]; SPR, Figure S2T, read-out: KD): 18 nM

CC(C)[C@@H]1NC(=O)[C@H](CO)NC(=O)[C@H](CO)NC(=O)[C@H](CCCNC(=N)N)NC(=O)[C@H](CC(N)=O)NC(=O)CNC(=O)[C@H](C)NC(=O)[C@H]([C@@H](C)O)NC(=O)[C@H](Cc2c[nH]c3ccccc23)NC(=O)[C@H](CO)NC(=O)[C@@H](Cc2ccc(O)cc2)NC(=O)CSC[C@@H](C(N)=O)NC(=O)CNC(=O)[C@H](CCCNC(=N)N)NC1=O [CP-06-W5A] (HELM PEPTIDE1{[O=C(C[*:3])[*:2]].[dY].S.W.T.A.G.N.R.S.S.V.R.G.C.[am]}$PEPTIDE1,PEPTIDE1,1:R3-15:R3$$$V2.0)
Kd [1, 3]: 207 nM

CC(C)[C@@H]1NC(=O)[C@H](CO)NC(=O)[C@H](CO)NC(=O)[C@H](C)NC(=O)[C@H](CC(N)=O)NC(=O)CNC(=O)[C@H](Cc2c[nH]c3ccccc23)NC(=O)[C@H]([C@@H](C)O)NC(=O)[C@H](Cc2c[nH]c3ccccc23)NC(=O)[C@H](CO)NC(=O)[C@@H](Cc2ccc(O)cc2)NC(=O)CSC[C@@H](C(N)=O)NC(=O)CNC(=O)[C@H](CCCNC(=N)N)NC1=O [CP-06-R8A] (HELM PEPTIDE1{[O=C(C[*:3])[*:2]].[dY].S.W.T.W.G.N.A.S.S.V.R.G.C.[am]}$PEPTIDE1,PEPTIDE1,1:R3-15:R3$$$V2.0)
Kd [1, 3]: 18 nM

C[C@@H]1NC(=O)[C@H](CO)NC(=O)[C@H](CO)NC(=O)[C@H](CCCNC(=N)N)NC(=O)[C@H](CC(N)=O)NC(=O)CNC(=O)[C@H](Cc2c[nH]c3ccccc23)NC(=O)[C@H]([C@@H](C)O)NC(=O)[C@H](Cc2c[nH]c3ccccc23)NC(=O)[C@H](CO)NC(=O)[C@@H](Cc2ccc(O)cc2)NC(=O)CSC[C@@H](C(N)=O)NC(=O)CNC(=O)[C@H](CCCNC(=N)N)NC1=O [CP-06-V11A] (HELM PEPTIDE1{[O=C(C[*:3])[*:2]].[dY].S.W.T.W.G.N.R.S.S.A.R.G.C.[am]}$PEPTIDE1,PEPTIDE1,1:R3-15:R3$$$V2.0)
Kd ([1]; Ala scan of CP-06, SPR, n = 1, read-out: PKD (converted)): 30.2 nM

CC(C)[C@@H]1NC(=O)[C@H](CO)NC(=O)[C@H](CO)NC(=O)[C@H](CCCNC(=N)N)NC(=O)[C@H](CC(N)=O)NC(=O)CNC(=O)[C@H](Cc2c[nH]c3ccccc23)NC(=O)[C@H]([C@@H](C)O)NC(=O)[C@H](C)NC(=O)[C@H](CO)NC(=O)[C@@H](Cc2ccc(O)cc2)NC(=O)CSC[C@@H](C(N)=O)NC(=O)CNC(=O)[C@H](CCCNC(=N)N)NC1=O [CP-06-W3A] (HELM PEPTIDE1{[O=C(C[*:3])[*:2]].[dY].S.A.T.W.G.N.R.S.S.V.R.G.C.[am]}$PEPTIDE1,PEPTIDE1,1:R3-15:R3$$$V2.0)
Kd [1, 3]: 1200 nM

CC(C)[C@@H]1NC(=O)[C@H](CO)NC(=O)[C@H](CO)NC(=O)[C@H](CCCNC(=N)N)NC(=O)[C@H](CC(N)=O)NC(=O)[C@H](C)NC(=O)[C@H](Cc2c[nH]c3ccccc23)NC(=O)[C@H]([C@@H](C)O)NC(=O)[C@H](Cc2c[nH]c3ccccc23)NC(=O)[C@H](CO)NC(=O)[C@@H](Cc2ccc(O)cc2)NC(=O)CSC[C@@H](C(N)=O)NC(=O)CNC(=O)[C@H](CCCNC(=N)N)NC1=O [CP-06-G6A] (HELM PEPTIDE1{[O=C(C[*:3])[*:2]].[dY].S.W.T.W.A.N.R.S.S.V.R.G.C.[am]}$PEPTIDE1,PEPTIDE1,1:R3-15:R3$$$V2.0)
Kd [1, 3]: 235 nM

CC(C)[C@@H]1NC(=O)[C@H](C)NC(=O)[C@H](CO)NC(=O)[C@H](CCCNC(=N)N)NC(=O)[C@H](CC(N)=O)NC(=O)CNC(=O)[C@H](Cc2c[nH]c3ccccc23)NC(=O)[C@H]([C@@H](C)O)NC(=O)[C@H](Cc2c[nH]c3ccccc23)NC(=O)[C@H](CO)NC(=O)[C@@H](Cc2ccc(O)cc2)NC(=O)CSC[C@@H](C(N)=O)NC(=O)CNC(=O)[C@H](CCCNC(=N)N)NC1=O [CP-06-S10A] (HELM PEPTIDE1{[O=C(C[*:3])[*:2]].[dY].S.W.T.W.G.N.R.S.A.V.R.G.C.[am]}$PEPTIDE1,PEPTIDE1,1:R3-15:R3$$$V2.0)
Kd [1, 3]: 12 nM

CFANRLYGSDSR
Percentage Seq I [2]: 0.040%
Percentage Seq II [2]: 0.039%
Percentage Average [2]: 0.040%
Counts Seq I [2]: 177
Counts Seq II [2]: 17

CYGDRTFIYAWS
Counts (raw counts for peptide sequence), Seq I [2]: 53
Counts (raw counts for peptide sequence), Seq II [2]: 10
Percentage of the pool, averaged across the two sequencing samples [2]: 0.018%
Percentage of the pool, Seq I [2]: 0.012%
Percentage of the pool, Seq II [2]: 0.023%

SWTWGNRNSVRG
Percentage Seq I [2]: 0.043%
Percentage Seq II [2]: 0.065%
Percentage Average [2]: 0.054%
Counts Seq I [2]: 190
Counts Seq II [2]: 28

GYLNECWYGLS
Percentage Seq I [2]: 0.101%
Percentage Seq II [2]: 0.081%
Percentage Average [2]: 0.091%
Counts Seq I [2]: 441
Counts Seq II [2]: 35

FVTGSRDHTRG
Percentage Seq I [2]: 0.074%
Percentage Seq II [2]: 0.053%
Percentage Average [2]: 0.063%
Counts Seq I [2]: 322
Counts Seq II [2]: 23

CFSARAILDGGW
Percentage Seq I [2]: 0.249%
Percentage Seq II [2]: 0.248%
Percentage Average [2]: 0.249%
Counts Seq I [2]: 1089
Counts Seq II [2]: 107

CFVSRTQIGSV
Counts (raw counts for peptide sequence), Seq I [2]: 85
Counts (raw counts for peptide sequence), Seq II [2]: 2
Percentage of the pool, averaged across the two sequencing samples [2]: 0.012%
Percentage of the pool, Seq I [2]: 0.019%
Percentage of the pool, Seq II [2]: 0.00464%

FTRGNSTSVLF
Counts (raw counts for peptide sequence), Seq I [2]: 51
Counts (raw counts for peptide sequence), Seq II [2]: 7
Percentage of the pool, averaged across the two sequencing samples [2]: 0.014%
Percentage of the pool, Seq I [2]: 0.012%
Percentage of the pool, Seq II [2]: 0.016%

CYGGRTYIYAWS
Percentage Seq I [2]: 0.018%
Percentage Seq II [2]: 0.019%
Percentage Average [2]: 0.018%
Counts Seq I [2]: 77
Counts Seq II [2]: 8

SSALERIGKCP
Percentage Seq I [2]: 0.227%
Percentage Seq II [2]: 0.211%
Percentage Average [2]: 0.219%
Counts Seq I [2]: 991
Counts Seq II [2]: 91

CFSYRIRSAYDL
Percentage Seq I [2]: 0.028%
Percentage Seq II [2]: 0.030%
Percentage Average [2]: 0.029%
Counts Seq I [2]: 124
Counts Seq II [2]: 13

GRLNECHVIRP
Counts (raw counts for peptide sequence), Seq I [2]: 43
Counts (raw counts for peptide sequence), Seq II [2]: 7
Percentage of the pool, averaged across the two sequencing samples [2]: 0.013%
Percentage of the pool, Seq I [2]: 0.010%
Percentage of the pool, Seq II [2]: 0.016%

YSCPDWVRGSRT
Counts (raw counts for peptide sequence), Seq I [2]: 36
Counts (raw counts for peptide sequence), Seq II [2]: 6
Percentage of the pool, averaged across the two sequencing samples [2]: 0.011%
Percentage of the pool, Seq I [2]: 0.008%
Percentage of the pool, Seq II [2]: 0.014%

Reference: publication PMC12207370, “Macrocyclic Peptide Probes for Immunomodulatory Protein CD59: Potent Modulators of Bacterial Toxin Activity and Antibody‐Dependent Cytotoxicity” (Angewandte Chemie (International Ed. in English), 2025)
